Reference: publication PMC4873975 (2016)

T1: FcɛRIα (recombinant, soluble) (human, UniProt P12319 26-205)
T1 chain: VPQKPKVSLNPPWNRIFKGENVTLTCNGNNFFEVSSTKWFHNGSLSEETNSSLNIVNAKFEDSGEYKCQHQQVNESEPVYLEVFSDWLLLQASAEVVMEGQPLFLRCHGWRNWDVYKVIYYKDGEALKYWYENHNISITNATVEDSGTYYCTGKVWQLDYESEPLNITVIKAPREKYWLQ


How the values were obtained:
[1] = biological target: T1, FcɛRIα (recombinant, soluble); experiment: SPR; mammalian-derived IgE-Fc3-4
[2] = biological target: T1, FcɛRIα (recombinant, soluble); experiment: SPR; mammalian-derived IgE-Fc3-4
[3] = biological target: T1, FcɛRIα (recombinant, soluble); experiment: SPR; insect-derived IgE-Fc3-4
[4] = biological target: T1, FcɛRIα (recombinant, soluble); experiment: SPR; insect-derived IgE-Fc3-4
[5] = biological target: T1, FcɛRIα (recombinant, soluble); experiment: SPR; mammalian-derived
[6] = biological target: T1, FcɛRIα (recombinant, soluble); experiment: SPR; mammalian-derived

| Binder | Kd [1] [nM] | koff [2] [s⁻¹] | koff [3] [s⁻¹] | Kd [4] [nM] | Kd [5] [nM] | koff [6] [s⁻¹] |
| --- | --- | --- | --- | --- | --- | --- |
| IgE-Fc3–4 (wild type) (domain or fragment) CADSNPRGVSAYLSRPSPFDLFIRKSPTITCLVVDLAPSKGTVNLTWSRASGKPVNHSTRKEEKQRNGTLTVTSTLPVGTRDWIEGETYQCRVTHPHLPRALMRSTTKTSGPRAAPEVYAFATPEWPGSRDKRTLACLIQNFMPEDISVQWLHNEVQLPDARHSTTQPRKTKGSGFFVFSRLEVTRAEWEQKDEFICRAVHEAASPSQTVQRAVSVNPGK | 0.933 | 0.00102 | 0.000946 | 0.66 | – | – |
| IgE-R419N-Fc3–4 (domain or fragment, additional N-linked glycan at the site made by R419N (NVT)) CADSNPRGVSAYLSRPSPFDLFIRKSPTITCLVVDLAPSKGTVNLTWSRASGKPVNHSTRKEEKQRNGTLTVTSTLPVGTRDWIEGETYQCNVTHPHLPRALMRSTTKTSGPRAAPEVYAFATPEWPGSRDKRTLACLIQNFMPEDISVQWLHNEVQLPDARHSTTQPRKTKGSGFFVFSRLEVTRAEWEQKDEFICRAVHEAASPSQTVQRAVSVNPGK | – | – | – | – | 2.26 | 0.000773 |
